{
  "source": "patent US20030124505",
  "biological_target": "RecA recombinase (UniProt P0A7G6)",
  "sequence (P0A7G6 2-353)": "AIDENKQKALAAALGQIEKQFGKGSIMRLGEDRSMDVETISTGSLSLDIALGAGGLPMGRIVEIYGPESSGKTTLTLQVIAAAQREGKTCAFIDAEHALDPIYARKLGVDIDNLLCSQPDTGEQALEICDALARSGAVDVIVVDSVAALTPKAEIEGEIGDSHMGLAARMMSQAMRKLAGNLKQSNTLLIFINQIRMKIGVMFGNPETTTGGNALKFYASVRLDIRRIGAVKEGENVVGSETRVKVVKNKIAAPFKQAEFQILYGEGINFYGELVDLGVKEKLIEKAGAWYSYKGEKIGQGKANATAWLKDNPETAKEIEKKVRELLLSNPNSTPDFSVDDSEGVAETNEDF",
  "details": "second round manual capture from 1:10,000 pHPRT:pUC library; automated 59%; first round 2% and 1.35%",
  "data": [
    {"substance": "318 bp biotinylated HPRT cssDNA probe (primers hExo3-2A and h/m300B)", "values": [
      {"measurement": "activity (% pHPRT clones)", "value": 76}
    ]}
  ]
}
